In patent US20260209265A1 (NAVIGO PROTEINS, published 2026):

Key:
Octagam (IgG sample) [1] = molecular target: T1, Octagam (IgG sample); experiment: step pH elution with 0.1 M acetic acid of hIgG (Octagam) bound to the immobilized ligand; percent of the bound IgG released at pH 3.7
T1 construct: also called hIgG

Panitumab (IgG2) = molecular target: T2, Panitumab (IgG2); experiment: SPR (Bruker SPR-32, 25 C, Langmuir 1:1 model)
T2 construct: also called hIgG2
Source text: (§1) A sensor chip (Bruker) was equilibrated with surface plasmon resonance (SPR) running buffer. Surface-exposed carboxylic groups were activated by passing a mixture of EDC and NHS to yield reactive ester groups. 700-1500 RU on-ligand were immobilized on a flow cell, off-ligand was immobilized on another flow cell. Injection of ethanolamine after ligand immobilization removes non-covalently bound Ig binding protein. Upon ligand binding, protein analyte was accumulated on the surface increasing the refractive index. This change in the refractive index was measured in real time and plotted as response or resonance units (RU) versus time. The analytes were applied to the chip in serial dilutions with a suitable flow rate (pl/min). After each run, the chip surface was regenerated with regeneration buffer and equilibrated with running buffer. The control samples were applied to the matrix. Regeneration and re-equilibration were performed as previously mentioned. Binding studies were carried out by the use of the Bruker SPR-32 at 25° C.; data evaluation was operated via the Bruker evaluation software, provided by the manufacturer, by the use of the Langmuir 1:1 model (RI=0).

Natalizumab (IgG4) = experiment: SPR (Bruker SPR-32, 25 C, Langmuir 1:1 model)
Sequence of Natalizumab (IgG4) (VH, as listed by the source, chain 1 of 2): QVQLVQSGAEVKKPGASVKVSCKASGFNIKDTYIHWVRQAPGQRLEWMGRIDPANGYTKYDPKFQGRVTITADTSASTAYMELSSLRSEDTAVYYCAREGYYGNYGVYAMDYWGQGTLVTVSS
Sequence of Natalizumab (IgG4) (VL, as listed by the source, chain 2 of 2): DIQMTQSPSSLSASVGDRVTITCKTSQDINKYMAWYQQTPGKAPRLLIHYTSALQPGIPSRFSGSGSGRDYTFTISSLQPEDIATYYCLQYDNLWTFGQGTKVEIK
Source text: as §1

Octagam (IgG sample) [2] = molecular target: T1, Octagam (IgG sample); experiment: DBC10 of the immobilized ligand after 50 h in 1 M NaOH, in % of the DBC10 at 0 h; Octagam loaded, 6 min residence time
Octagam (IgG sample) [3] = molecular target: T1, Octagam (IgG sample); experiment: dynamic binding capacity at 10% breakthrough; ligand coupled to agarose beads, Octagam 2.2 mg/ml loaded
Octagam (IgG sample) [4] = molecular target: T1, Octagam (IgG sample); experiment: step pH elution with 0.1 M acetic acid of hIgG (Octagam) bound to the immobilized ligand; percent of the bound IgG released at pH 4.0

B1: 224777 (SEQ ID NO: 7) (designed binder)
chain: AQFDKIAQIAFYAILHLPNLTEEQRHAFIQSLRDDPSVSKEILAEAKKLNDAQAPKIAAQFDKIAQIAFYAILHLPNLTEEQRHAFIQSLRDDPSVSKEILAEAKKLNDAQAPKIAAQFDKIAQIAFYAILHLPNLTEEQRHAFIQSLRDDPSVSKEILAEAKKLNDAQAPKIAAQFDKIAQIAFYAILHLPNLTEEQRHAFIQSLRDDPSVSKEILAEAKKLNDAQAPKIAAQFDKIAQIAFYAILHLPNLTEEQRHAFIQSLRDDPSVSKEILAEAKKLNDAQAPK
notes: also called 224777 pentamer
Amount eluted IgG pH 3.7 (%) (Octagam (IgG sample) [1]): 0%
Kd (Panitumab (IgG2)): 5.8 nM
Kd (Natalizumab (IgG4)): 2 nM
Remaining IgG binding capacity after 50 h, 1 M NaOH (%) (Octagam (IgG sample) [2]): 76%
DBC10% 6 min residence time (Octagam (IgG sample) [3]): 61 mg/mL
Amount eluted IgG pH 4.0 (%) (Octagam (IgG sample) [4]): 100%
